Data reported in doi:10.1101/2022.10.09.511488 (bioRxiv, 2022).

Legend:
[1] = target: Huc protomer (HucSL heterodimer) (Mycobacterium smegmatis mc2155); assay: cryo-EM structure
[2] = target: the molecule itself; assay: cryo-EM structure

With “Huc protomer (HucSL heterodimer) (complex)” the stoichiometry N [1] was 2.

B1: HucM (MSMEG_2261) (natural protein)
chain: MASNGHSAGQNAIDELPDISPVDGIRRRLDDPQVAEALNSLLDHADLLAVLVKGLDGFVRRGDDIANNLTSAIGELKALNAADTPIPALAALKDVDLAGLANSLATLSGGLVKATPALNAVLDSLTDQRGAEVLSALGDALVAARTSAPPAPRGVRGMWKTLRAAAKDPDVGRGVSYLIEVARVFGSKV
For B1, the “stoichiometry N” value [2] was 4.
